Reference: IntAct's records for PubMed 29849149

B1: Beclin-1 (Mus musculus), O88597 (parent)
chain: MEGSKASSSTMQVSFVCQRCSQPLKLDTSFKILDRVTIQELTAPLLTTAQAKPGETQEEEANSGEEPFIETRQDGVSRRFIPPARMMSTESANSFTLIGEASDGGTMENLSRRLKVTGDLFDIMSGQTDVDHPLCEECTDTLLDQLDTQLNVTENECQNYKRCLEILEQMNEDDSEQLQRELKELALEEERLIQELEDVEKNRKVVAENLEKVQAEAERLDQEEAQYQREYSEFKRQQLELDDELKSVENQVRYAQIQLDKLKKTNVFNATFHIWHSGQFGTINNFRLGRLPSVPVEWNEINAAWGQTVLLLHALANKMGLKFQRYRLVPYGNHSYLESLTDKSKELPLYCSGGLRFFWDNKFDHAMVAFLDCVQQFKEEVEKGETRFCLPYRMDVEKGKIEDTGGSGGSYSIKTQFNSEEQWTKALKFMLTNLKWGLAWVSSQFYNK

Variants of: B1
Conditions: with bcl2_mouse Bcl2, P10417
Chain of bcl2_mouse Bcl2, P10417 (P10417 whole entry): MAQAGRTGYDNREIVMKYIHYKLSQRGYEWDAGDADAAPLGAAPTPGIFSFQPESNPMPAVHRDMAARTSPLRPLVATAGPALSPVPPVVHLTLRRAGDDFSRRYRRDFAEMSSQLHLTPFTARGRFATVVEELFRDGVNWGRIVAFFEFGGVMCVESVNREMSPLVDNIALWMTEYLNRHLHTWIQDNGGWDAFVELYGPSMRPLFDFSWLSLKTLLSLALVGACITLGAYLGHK

effect of a mutation on the interaction	Variant
decreasing interaction strength	MEGSKASSSTMQVSFVCQRCSQPLKLDTSFKILDRVTIQELTAPLLTTAQAKPGETQEEEANSGEEPFIETRQDGVSRRFIPPARMMSTESANSFTLIGEASDGGTMENLSRRLKVTGDLADIMSGQTDVDHPLCEECTDTLLDQLDTQLNVTENECQNYKRCLEILEQMNEDDSEQLQRELKELALEEERLIQELEDVEKNRKVVAENLEKVQAEAERLDQEEAQYQREYSEFKRQQLELDDELKSVENQVRYAQIQLDKLKKTNVFNATFHIWHSGQFGTINNFRLGRLPSVPVEWNEINAAWGQTVLLLHALANKMGLKFQRYRLVPYGNHSYLESLTDKSKELPLYCSGGLRFFWDNKFDHAMVAFLDCVQQFKEEVEKGETRFCLPYRMDVEKGKIEDTGGSGGSYSIKTQFNSEEQWTKALKFMLTNLKWGLAWVSSQFYNK [F121A]
